Blank lines part the entries; values can stand above or below the molecule they belong to.
What was measured:
Test in all cases: capillary electrophoresis enzyme assay, Michaelis-Menten kinetics (Km)
[1] = biological target: T1, galactosylceramide (cerebroside) sulphotransferase (CST) (Homo sapiens, UniProt Q99999); type: biochemical
T1 construct: gene GAL3ST1
T1 sequence (Q99999 1-423): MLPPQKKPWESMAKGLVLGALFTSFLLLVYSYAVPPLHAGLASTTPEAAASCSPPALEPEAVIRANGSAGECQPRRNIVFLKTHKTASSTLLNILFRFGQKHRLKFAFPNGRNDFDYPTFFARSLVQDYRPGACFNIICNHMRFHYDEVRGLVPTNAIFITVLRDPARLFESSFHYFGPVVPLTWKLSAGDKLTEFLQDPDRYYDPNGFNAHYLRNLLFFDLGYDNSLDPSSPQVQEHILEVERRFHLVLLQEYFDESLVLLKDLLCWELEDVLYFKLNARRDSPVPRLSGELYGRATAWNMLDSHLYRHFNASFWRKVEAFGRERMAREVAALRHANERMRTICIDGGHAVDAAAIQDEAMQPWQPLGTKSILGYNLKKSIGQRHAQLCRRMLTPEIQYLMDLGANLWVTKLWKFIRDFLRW

[2] = substrate: CCCCCCCCCCCCCCCCCCC(=O)N[C@@H](CO[C@H]1O[C@H](CO)[C@H](O)[C@H](O)[C@H]1O)[C@H](O)[C@H](O)CCCCCCCCCCCCCC; type: biochemical, Homo sapiens; settings: PAPS
[3] = substrate: CCCCCCCCCCCCCC[C@@H](O)[C@@H](O)[C@H](CO[C@H]1O[C@H](CO)[C@H](O)[C@H](O)[C@H]1O)NC(=O)CCCC; type: biochemical, Homo sapiens; settings: PAPS

- Km [1]: 550 µM
Molecule: CCCCCCCCCCCCCCCCCCCCCCCCCC(=O)N[C@@H](CO[C@@H]1O[C@H](CO)[C@H](O)[C@H](O)[C@H]1O)[C@H](O)[C@H](O)CCCCCCCCCCCCCC [compound 10, β-KRN7000]

- Km [1]: 438 µM
Molecule: CCCCCCCCCCCCCCCCCCCCCCCCCC(=O)N[C@@H](CO[C@H]1O[C@H](CO)[C@H](O)[C@H](O)[C@H]1O)[C@H](O)[C@H](O)CCCCCCCCCCCCCC [compound 18, KRN7000]

B1: galactosylceramide (cerebroside) sulphotransferase (CST) (Homo sapiens) (protein)
chain: T1 sequence (Q99999 1-423)
- Km [2]: 521 µM
- Vmax [2]: 0.0519 µmol/min/mg
- Km [3]: 358 µM
- Vmax [3]: 0.0449 µmol/min/mg
